Laboratory results reported in patent US20240115611A1 (KITE PHARMA, published 2024).

Key:
[1] = target: T1, CD20 (human CD20) (human, UniProt P11836 1-297); test: flow cytometry, purified IgG at 10 nM on Raji cells (CD20+), FITC-LC detection, ratio over negative control
T1 construct: whole, on cells; The cell line for each value is named under assay
T1 sequence (looked up): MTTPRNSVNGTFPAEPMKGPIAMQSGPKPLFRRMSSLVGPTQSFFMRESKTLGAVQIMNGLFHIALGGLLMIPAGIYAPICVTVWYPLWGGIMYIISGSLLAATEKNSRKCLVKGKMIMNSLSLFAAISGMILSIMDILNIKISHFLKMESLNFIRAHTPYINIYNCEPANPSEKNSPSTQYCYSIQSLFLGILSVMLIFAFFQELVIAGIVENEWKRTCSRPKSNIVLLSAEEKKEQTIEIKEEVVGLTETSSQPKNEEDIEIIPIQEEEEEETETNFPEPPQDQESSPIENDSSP
Protocol: (§1) To determine cell binding by exemplary heavy chain variable domains and light chain variable domains of the present disclosure, purified IgGs were characterized for cell binding at a concentration of 10 nM by flow cytometry. Antibodies were incubated with CHO-S cells overexpressing CD20, Raji, and Namalwa CD20+ cell lines; and with EoL-1 and CHO-S CD20-cell lines. FITC-LC was used to detect IgGs. The ratio of binding over negative controls was calculated for each antibody.

[2] = target: T1, CD20 (human CD20); test: flow cytometry, purified IgG at 10 nM on Namalwa cells (CD20+), FITC-LC detection, ratio over negative control
Protocol: as §1

[3] = target: T1, CD20 (human CD20); test: flow cytometry, purified IgG at 10 nM on CHO-S cells overexpressing CD20, FITC-LC detection, ratio over negative control
Protocol: as §1

B1: Ab1 (Exemplary Antibody Sequences 1), anti-CD20 antibody (antibody, V domains shown)
VH: QVQLQQWGAGLLKPSETLSLTCAVYGGSFSGYYWSWIRQPPGKGLEWIGEIDHSGSTNYNPSLKSRVTISVDTSKNQFSLKLSSVTAADTAVYYCARGGGSWYSNWFDPWGQGTMVTVSS
VL: DIQMTQSPSTLSASVGDRVTITCRASQSISSWLAWYQQKPGKAPKLLIYDASSLESGVPSRFSGSGSGTEFTLTISSLQPDDFATYYCQQDRSLPPTFGGGTKVEIK
With B1 as the binder, how does the “Raji Cell Binding FON (Fold Over Negative)” value [1] read?
Its value is 266 fold.

And the “Namalwa Cell Binding FON (Fold Over Negative)” value [2]?
The value was 12 fold.

And the “CHO-CD20 Cell Binding FOB (Fold Over Background)” value [3]?
Its value is 813 fold.

B2: Ab3 (Exemplary Antibody Sequences 3), anti-CD20 antibody (antibody, V domains shown)
VH: QLQLQESGPGLVKPSETLSLTCTVSGGSISSSSYYWGWIRQPPGKGLEWIGSIYYSGSTYYNPSLKSRVTISVDTSKNQFSLKLSSVTAADTAVYYCARETDYSSGMGYGMDVWGQGTTVTVSS
VL: DIQMTQSPSSLSASVGDRVTITCRASQSINSYLNWYQQKPGKAPKLLIYAASSLQSGVPSRFSGSGSGTDFTLTISSLQPEDFATYYCQQSLADPFTFGGGTKVEIK
Which results are given for B2?
Raji Cell Binding FON (Fold Over Negative) [1]: 316 fold; Namalwa Cell Binding FON (Fold Over Negative) [2]: 16 fold; CHO-CD20 Cell Binding FOB (Fold Over Background) [3]: 2000 fold

B3: Ab6 (Exemplary Antibody Sequences 6), anti-CD20 antibody (antibody, V domains shown)
VH: QITLKESGPTLVKPTQTLTLTCTFSGFSLDTEGVGVGWIRQPPGKALEWLALIYFNDQKRYSPSLKSRLTITKDTSKNQVVLTMTNMDPVDTAVYYCARDTGYSRWYYGMDVWGQGTTVTVSS
VL: DIQMTQSPSSVSASVGDRVTITCRASQGISSWLAWYQQKPGKAPKLLIYAASSLQSGVPSRFSGSGSGTDFTLTISSLQPEDFATYYCQQAYAYPITFGGGTKVEIK
B3 was tested. Which “Raji Cell Binding FON (Fold Over Negative)” value [1] did it give?
Its value is 13 fold.

What about the “Namalwa Cell Binding FON (Fold Over Negative)” value [2] of the same binder?
Its value is 2 fold.

And the “CHO-CD20 Cell Binding FOB (Fold Over Background)” value [3]?
The value was 2520 fold.

B4: Ab5 (Exemplary Antibody Sequences 5), anti-CD20 antibody (antibody, V domains shown)
VH: QVQLQESGPGLVKPSETLSLTCTVSGGSISSPDHYWGWIRQPPGKGLEWIGSIYASGSTFYNPSLKSRVTISVDTSKNQFSLKLSSVTAADTAVYYCARETDYSSGMGYGMDVWGQGTTVTVSS
VL: DIQMTQSPSSLSASVGDRVTITCRASQSINSYLNWYQQKPGKAPKLLIYAASSLQSGVPSRFSGSGSGTDFTLTISSLQPEDFATYYCQQSLADPFTFGGGTKVEIK
B4 was tested. Which “Raji Cell Binding FON (Fold Over Negative)” value [1] did it give?
The value was 185 fold.

What about the “Namalwa Cell Binding FON (Fold Over Negative)” value [2] of the same binder?
Its value is 17 fold.

What about the “CHO-CD20 Cell Binding FOB (Fold Over Background)” value [3] of the same binder?
Its value is 2480 fold.

B5: Ab2 (Exemplary Antibody Sequences 2), anti-CD20 antibody (antibody, V domains shown)
VH: QVQLQQWGAGLLKPSETLSLTCAVYGGSFSGIHWNWIRQPPGKGLEWIGDIDTSGSTNYNPSLKSRVTISVDTSKNQFSLKLSSVTAADTAVYYCARLGQESATYLGMDVWGQGTTVTVSS
VL: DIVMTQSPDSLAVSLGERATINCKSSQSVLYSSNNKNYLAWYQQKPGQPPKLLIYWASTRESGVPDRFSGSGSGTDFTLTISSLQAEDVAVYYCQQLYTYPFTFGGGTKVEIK
With B5 as the binder, how does the “Raji Cell Binding FON (Fold Over Negative)” value [1] read?
Its value is 101 fold.

What about the “Namalwa Cell Binding FON (Fold Over Negative)” value [2] of the same binder?
Its value is 3 fold.

What about the “CHO-CD20 Cell Binding FOB (Fold Over Background)” value [3] of the same binder?
The value was 2790 fold.

B6: Ab4 (Exemplary Antibody Sequences 4), anti-CD20 antibody (antibody, V domains shown)
VH: QVQLVQSGAEVKKPGASVKVSCKASGYTFKEYGISWVRQAPGQGLEWMGWISAYSGHTYYAQKLQGRVTMTTDTSTSTAYMELRSLRSDDTAVYYCARGPHYDDWSGFIIWFDPWGQGTLVTVSS
VL: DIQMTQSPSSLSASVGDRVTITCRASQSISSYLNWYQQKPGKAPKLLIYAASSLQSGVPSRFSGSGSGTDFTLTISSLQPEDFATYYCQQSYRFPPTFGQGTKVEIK
Which “Raji Cell Binding FON (Fold Over Negative)” value [1] does the source give for B6 here?
Its value is 479 fold.

And the “Namalwa Cell Binding FON (Fold Over Negative)” value [2]?
Its value is 19 fold.

And the “CHO-CD20 Cell Binding FOB (Fold Over Background)” value [3]?
Its value is 3620 fold.

B7: Ab8 (Exemplary Antibody Sequences 8), anti-CD20 antibody (antibody, V domains shown)
VH: QVQLQQWGAGLLKPSETLSLTCAVYGGSFSRYVWSWIRQPPGKGLEWIGEIDSSGKTNYNPSLKSRVTISVDTSKNQFSLKLSSVTAADTAVYYCARVRYDSSDSYYYSYDYGMDVWGQGTTVTVSS
VL: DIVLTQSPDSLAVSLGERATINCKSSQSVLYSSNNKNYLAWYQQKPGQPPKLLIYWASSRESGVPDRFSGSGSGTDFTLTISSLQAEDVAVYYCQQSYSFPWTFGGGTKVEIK
Which “Raji Cell Binding FON (Fold Over Negative)” value [1] does the source give for B7 here?
The value was 562 fold.

What about the “Namalwa Cell Binding FON (Fold Over Negative)” value [2] of the same binder?
The value was 10 fold.

What about the “CHO-CD20 Cell Binding FOB (Fold Over Background)” value [3] of the same binder?
The value was 3830 fold.

B8: Ab9 (Exemplary Antibody Sequences 9), anti-CD20 antibody (antibody, V domains shown)
VH: QVQLQQWGAGLLKPSETLSLTCAVYGGSFSGYAWSWIRQPPGKGLEWIGEIDHRGFTNYNPSLKSRVTISVDTSKNQFSLKLSSVTAADTAVYYCARVRYDSSDSYYYSYDYGMDVWGQGTTVTVSS
VL: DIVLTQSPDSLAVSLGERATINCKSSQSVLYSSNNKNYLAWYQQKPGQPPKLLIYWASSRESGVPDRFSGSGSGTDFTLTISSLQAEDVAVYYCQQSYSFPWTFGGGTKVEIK
What does the source list for B8?
Raji Cell Binding FON (Fold Over Negative) [1]: 562 fold; Namalwa Cell Binding FON (Fold Over Negative) [2]: 11 fold; CHO-CD20 Cell Binding FOB (Fold Over Background) [3]: 3620 fold

B9: Ab7 (Exemplary Antibody Sequences 7), anti-CD20 antibody (antibody, V domains shown)
VH: QVQLQQWGAGLLKPSETLSLTCAVYGGSFEKYYWSWIRQPPGKGLEWIGEIYHSGLTNYNPSLKSRVTISVDTSKNQFSLKLSSVTAADTAVYYCARVRYDSSDSYYYSYDYGMDVWGQGTTVTVSS
VL: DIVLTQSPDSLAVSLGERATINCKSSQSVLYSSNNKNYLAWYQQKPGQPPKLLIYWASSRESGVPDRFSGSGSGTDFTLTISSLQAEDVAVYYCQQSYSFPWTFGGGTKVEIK
B9 was tested. Which “Raji Cell Binding FON (Fold Over Negative)” value [1] did it give?
The value was 549 fold.

What about the “Namalwa Cell Binding FON (Fold Over Negative)” value [2] of the same binder?
The value was 11 fold.

And the “CHO-CD20 Cell Binding FOB (Fold Over Background)” value [3]?
The value was 4080 fold.

B10: Ab10 (Exemplary Antibody Sequences 10), anti-CD20 antibody (antibody, V domains shown)
VH: QVQLQQWGAGLLKPSETLSLTCAVYGGSFQKYYWSWIRQPPGKGLEWIGEIDTSGFTNYNPSLKSRVTISVDTSKNQFSLKLSSVTAADTAVYYCARVGRYSYGYYITAFDIWGQGTTVTVSS
VL: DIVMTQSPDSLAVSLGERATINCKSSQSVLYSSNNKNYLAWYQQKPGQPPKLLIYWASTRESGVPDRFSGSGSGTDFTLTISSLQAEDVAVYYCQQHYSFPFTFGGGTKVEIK
What does the source list for B10?
Raji Cell Binding FON (Fold Over Negative) [1]: 186 fold; Namalwa Cell Binding FON (Fold Over Negative) [2]: 4 fold; CHO-CD20 Cell Binding FOB (Fold Over Background) [3]: 3160 fold
